In PMC7509493:

Biological target: recombinant flounder IL-2 receptor beta, GST-tagged (GST-rfIL-2Rβ) (flounder (Paralichthys olivaceus))

## recombinant flounder IL-2 protein, His-tagged (His-rfIL-2) (ligand)
  percentage of CD4-1+ T lymphocytes in cultured flounder PBLs (FCM, 72 h), PHA + rfIL-2 after blocking with anti-rfIL-2Rβ polyclonal antibodies (order of 'respectively' assumed): 12.6%
  percentage of CD4-1+ T lymphocytes in cultured flounder PBLs (FCM, 72 h), PHA + rfIL-2 group without blocking antibodies: 19.2%
  percentage of CD4-1+ T lymphocytes in cultured flounder PBLs (FCM, 72 h), PHA + rfIL-2 with anti-rfIL-2 polyclonal antibodies (order of 'respectively' assumed): 7.2%
  percentage of CD4-2+ T lymphocytes in cultured flounder PBLs (FCM, 72 h), PHA + rfIL-2 after blocking with anti-rfIL-2Rβ polyclonal antibodies (order of 'respectively' assumed): 11%
  percentage of CD4-2+ T lymphocytes in cultured flounder PBLs (FCM, 72 h), PHA + rfIL-2 group without blocking antibodies: 14.5%
  percentage of CD4-2+ T lymphocytes in cultured flounder PBLs (FCM, 72 h), PHA + rfIL-2 with anti-rfIL-2 polyclonal antibodies (order of 'respectively' assumed): 8.8%
  percentage of IL-2Rβ+ cells in cultured flounder PBLs (FCM, 72 h), PHA + rfIL-2 after blocking with anti-rfIL-2Rβ polyclonal antibodies: 17.8%
  percentage of IL-2Rβ+ cells in cultured flounder PBLs (FCM, 72 h), PHA + rfIL-2 group without blocking antibodies: 26.8%
  percentage of IL-2Rβ+ cells in cultured flounder PBLs (FCM, 72 h), PHA + rfIL-2 with anti-rfIL-2 polyclonal antibodies: 13.3%
